Assay results: US20230101046A1, “[…] LYMPHOMA KINASE […] ANTIGEN RECEPTORS AND METHODS OF USE” (The Children's Medical Center Corporation, published 2023)

Target: human ALK receptor (human)
Experiment: apparent KD (KD^app), method not stated

Chain of human ALK receptor (human) (chain, as listed by the source): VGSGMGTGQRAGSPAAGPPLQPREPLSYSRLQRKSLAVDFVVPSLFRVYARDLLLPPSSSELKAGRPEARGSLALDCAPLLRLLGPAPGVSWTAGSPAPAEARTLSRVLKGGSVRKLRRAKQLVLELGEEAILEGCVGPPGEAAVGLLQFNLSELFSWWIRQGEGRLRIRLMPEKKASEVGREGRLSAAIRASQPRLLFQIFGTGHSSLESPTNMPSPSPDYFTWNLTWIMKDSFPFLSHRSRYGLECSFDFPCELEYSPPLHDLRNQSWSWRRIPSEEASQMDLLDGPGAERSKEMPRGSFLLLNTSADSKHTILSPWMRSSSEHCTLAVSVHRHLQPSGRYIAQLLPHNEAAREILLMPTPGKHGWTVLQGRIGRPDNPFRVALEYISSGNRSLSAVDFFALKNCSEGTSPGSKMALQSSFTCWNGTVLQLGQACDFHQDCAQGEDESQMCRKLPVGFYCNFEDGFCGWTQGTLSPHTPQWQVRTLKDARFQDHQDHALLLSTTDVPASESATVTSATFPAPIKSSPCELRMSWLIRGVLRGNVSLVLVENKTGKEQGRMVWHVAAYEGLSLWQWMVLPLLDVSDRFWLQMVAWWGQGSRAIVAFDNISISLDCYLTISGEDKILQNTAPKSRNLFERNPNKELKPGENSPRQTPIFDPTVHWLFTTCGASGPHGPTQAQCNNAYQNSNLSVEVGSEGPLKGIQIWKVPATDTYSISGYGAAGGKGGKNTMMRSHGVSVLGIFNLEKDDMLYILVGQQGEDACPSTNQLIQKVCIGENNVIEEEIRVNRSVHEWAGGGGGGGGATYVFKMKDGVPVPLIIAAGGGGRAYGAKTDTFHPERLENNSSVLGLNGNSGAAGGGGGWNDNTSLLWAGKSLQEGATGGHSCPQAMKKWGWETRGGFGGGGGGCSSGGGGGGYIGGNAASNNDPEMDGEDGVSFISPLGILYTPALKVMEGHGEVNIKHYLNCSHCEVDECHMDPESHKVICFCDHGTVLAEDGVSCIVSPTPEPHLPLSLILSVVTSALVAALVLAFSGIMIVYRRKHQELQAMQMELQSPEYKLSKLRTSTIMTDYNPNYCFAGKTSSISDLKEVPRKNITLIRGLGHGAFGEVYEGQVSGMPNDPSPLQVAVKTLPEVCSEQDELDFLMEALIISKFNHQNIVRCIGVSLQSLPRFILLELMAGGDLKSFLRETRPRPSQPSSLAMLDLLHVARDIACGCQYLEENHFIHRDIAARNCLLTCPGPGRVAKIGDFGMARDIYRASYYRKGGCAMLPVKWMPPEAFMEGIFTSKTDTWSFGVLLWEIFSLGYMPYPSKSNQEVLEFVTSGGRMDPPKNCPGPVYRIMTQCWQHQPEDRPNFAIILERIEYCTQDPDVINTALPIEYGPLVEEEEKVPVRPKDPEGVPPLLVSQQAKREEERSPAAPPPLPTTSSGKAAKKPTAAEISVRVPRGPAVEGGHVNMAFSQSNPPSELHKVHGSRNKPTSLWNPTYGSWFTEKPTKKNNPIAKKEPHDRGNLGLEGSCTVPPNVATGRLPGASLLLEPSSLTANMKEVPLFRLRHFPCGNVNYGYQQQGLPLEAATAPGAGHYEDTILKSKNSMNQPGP

| Kd [nM] | Binder |
| --- | --- |
| 0.5 | ALK Antibody #3 (antibody, V domains shown) VH: QVQLQQSGAELAKPGASVKLSCKASGYTFTNYWMHWVKQRPGQGLEWIGYINPSSGYTKYNQKFKDKATLTADKSSSTAYMQLSSLTYEDSAVYYCARDYYGSSSWFAYWGQGTLVTVSA VL: DIVMTQSQRFMSTSVGDRVSVTCKASQNVGTNVAWYQQKPGQSPKALIYSASYRYSGVPDRFTGSGSGTDFTLTVSNVQSEDLAEYFCQQYNSYPYMYTFGGGTKLEIKR |
| 0.5 | ALK Antibody #7 (antibody, V domains shown) VH: QVQLQQSGAELAKPGASVKLSCKASGYTFTSYWMHWVKQRPGQGLEWIGYINPSSGYTKYNQKFKDKATLTADKSSSTAYMQLSSLTFEDSAVYYCARDYYGSSSWFAYWGQGTLVTVSA VL: DIVMTQSQKFMSTSVGDRVSVTCKASQNVGTNVAWYQQKPGHSPKALIYSASYRYSGVPDRFTGSGSGTDFTLTISNVQSEDLAEYFCQRYNSYPYMFTFGGGTKLEIKR |
| 0.5 | ALK Antibody #5 (antibody, V domains shown) VH: QVQLQQSGAELAKPGASVKLSCKASGYTFTSYWMHWVKQRPGQGLEWIGYIKPSSGYTKYNQKFKDKATLTADKSSSTAYMQLSSLTYEDSAVYYCARDYYGSSSWFAYWGQGTLVTVSA VL: DIVMTQSQRFMSTSVGDRVSVTCKASQNVGTNVAWYQQKPGQSPKALIYSASYRYSGVPDRFTGSGSGTDFTLTISNVQSEDLAEYFCQQYNSYPYMYTFGGGTKLEIKR |
| 0.5 | ALK Antibody #4 (antibody, V domains shown) VH: QVQLQQSGAELVKPGASVKISCKASGYAFSSYWVNWVKQRPGKGLEWIGQIYPGDGDTNYNGKFKGKATLTADKSSSTAYMQLSSLTSEDSAVYFCARSRGYFYGSTYDSWGQGTTLTVSS VL: not shown |
| 0.35 | ALK Antibody #1 (antibody, V domains shown) VH: QVQLQQSGAELVKPGASVKISCKASGYAFSSYWMNWVKQRPGKGLEWIGQIYPGDGDTNYNGKFKGKATLTADKSSSTAYMQLSSLTSEDSAVYFCASYYYGSKAYWGQGTLVTVSA VL: DIQMTQSPASLAASVGETVTITCRASENIYYSLAWYQQKQGKSPQLLIYNANSLEDGVPSRFSGSGSGTQYSMKINSMQPEDTATYFCKQAYDVPFTFGSGTKLEIKR |
| 0.4 | ALK Antibody #6 (antibody, V domains shown) VH: DVKLVESGEGLVKPGGSLKLSCAASGFTFSSYAMSWVRQTPEKRLEWVTYISSGGDYIYYADTVKGRFTISRDNARNTLYLQMSSLKSEDTAMYYCTRERIWLRRFFDVWGTGTTVTVSS VL: DIVMTQSQKFMSTSVGDRVSITCKASQNVGTAVAWYQLKPGQSPKLLIYSASNRFTGVPDRFTGSGSGTDFTLTISNMQSEDLADYFCQQYSSYPLTFGSGTKLEIKR |
